Non-standard residues stand in square brackets, D forms with d. *: point of attachment. X4 = ((1S)-1-Carboxy-3-methylbutyl)carbamoyl, CC(C)C[C@H](NC(=O)*)C(=O)O; X10 = Tetrahydro‑2H‑pyran‑4‑yl‑carbamoyl, O=C(NC1CCOCC1)*; 4‑guanidinomethylbenzoyl = N=C(N)NCc1ccc(C(=O)*)cc1; βHOAla = beta-homoalanine (β-HOAla), D- or L-form; Arg(Me) = CNC(=N)NCCC[C@H](N)C(=O)O; 4Pal = N[C@@H](Cc1ccncc1)C(=O)O; d(pGlu) = O=C1CC[C@H](C(=O)O)N1; Cha = N[C@@H](CC1CCCCC1)C(=O)O; Aipe = 3-aminobutanoic acid; dIva = CC[C@@](C)(N)C(=O)O; Iva = CC[C@](C)(N)C(=O)O; Aib = CC(C)(N)C(=O)O
Columns and labels:
[1] = target: human Y2 receptor (human) (UniProt P49146); assay: cell-based or functional assay
Sequence of human Y2 receptor (human) (P49146 whole entry): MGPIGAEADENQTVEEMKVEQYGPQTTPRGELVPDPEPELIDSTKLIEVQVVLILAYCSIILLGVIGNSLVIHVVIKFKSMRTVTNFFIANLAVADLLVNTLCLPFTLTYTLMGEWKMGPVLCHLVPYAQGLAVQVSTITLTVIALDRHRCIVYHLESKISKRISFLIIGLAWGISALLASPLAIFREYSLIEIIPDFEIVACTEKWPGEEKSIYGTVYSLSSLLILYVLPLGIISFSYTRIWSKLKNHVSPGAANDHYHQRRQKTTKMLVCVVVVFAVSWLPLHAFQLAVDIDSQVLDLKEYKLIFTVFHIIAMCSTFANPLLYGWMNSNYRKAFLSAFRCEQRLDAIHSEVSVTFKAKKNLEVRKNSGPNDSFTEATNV

[2] = target: human Y2 receptor (human) (UniProt P49146); assay: RBA: displacement of [125I]-PYY from hY2R/CHO membranes

Binder | GBA EC50 Ratio ([35S]GTPγS binding) (EC50 compound/EC50 PYY(3-36)) [1] | IC50 Ratio (IC50 compound/IC50 PYY(3-36)) [2]
Ac-S[βHOAla]R[4Pal][Cha][Aib]NK[Aib]TRQR[Cha]-NH2 (also: former peak isomer, β-HOAla configuration D or L not assigned) [Ac-[β-HOAla24, Pya(4)26, Cha27,36, Aib28,31, Lys30]-PYY(23-36) former peak] | 2.8 | 2.4
Ac-[dP]R[4Pal][Cha][Aib]NK[Aib]TRQR[Cha]-NH2 (SMILES CC(=O)N1CCC[C@@H]1C(=O)N[C@@H](CCCNC(=N)N)C(=O)N[C@@H](Cc1ccncc1)C(=O)N[C@@H](CC1CCCCC1)C(=O)NC(C)(C)C(=O)N[C@@H](CC(N)=O)C(=O)N[C@@H](CCCCN)C(=O)NC(C)(C)C(=O)N[C@H](C(=O)N[C@@H](CCCNC(=N)N)C(=O)N[C@@H](CCC(N)=O)C(=O)N[C@@H](CCCNC(=N)N)C(=O)N[C@@H](CC1CCCCC1)C(N)=O)[C@@H](C)O) [Ac-[D-Pro24, Pya(4)26, Cha27,36, Aib28,31, Lys30]-PYY(24-36)] | 0.56 | 0.68
Ac-S[dP][Arg(Me)]H[Cha][Aib]NK[Aib]TRQR[Cha]-NH2 (SMILES CNC(=N)NCCC[C@H](NC(=O)[C@H]1CCCN1C(=O)[C@H](CO)NC(C)=O)C(=O)N[C@@H](Cc1c[nH]cn1)C(=O)N[C@@H](CC1CCCCC1)C(=O)NC(C)(C)C(=O)N[C@@H](CC(N)=O)C(=O)N[C@@H](CCCCN)C(=O)NC(C)(C)C(=O)N[C@H](C(=O)N[C@@H](CCCNC(=N)N)C(=O)N[C@@H](CCC(N)=O)C(=O)N[C@@H](CCCNC(=N)N)C(=O)N[C@@H](CC1CCCCC1)C(N)=O)[C@@H](C)O) [Ac-[D-Pro24, Arg(Me)25, Cha27,36, Aib28,31, Lys30]-PYY(23-36)] | 1.8 | 1.8
Ac-FS[dP]R[4Pal][Cha][Aib]NK[Aib]TRQR[Cha]-NH2 (SMILES CC(=O)N[C@@H](Cc1ccccc1)C(=O)N[C@@H](CO)C(=O)N1CCC[C@@H]1C(=O)N[C@@H](CCCNC(=N)N)C(=O)N[C@@H](Cc1ccncc1)C(=O)N[C@@H](CC1CCCCC1)C(=O)NC(C)(C)C(=O)N[C@@H](CC(N)=O)C(=O)N[C@@H](CCCCN)C(=O)NC(C)(C)C(=O)N[C@H](C(=O)N[C@@H](CCCNC(=N)N)C(=O)N[C@@H](CCC(N)=O)C(=O)N[C@@H](CCCNC(=N)N)C(=O)N[C@@H](CC1CCCCC1)C(N)=O)[C@@H](C)O) [Ac-[Phe22, D-Pro24, Pya(4)26, Cha27,36, Aib28,31, Lys30]-PYY(22-36)] | 0.89 | 1.2
{4‑guanidinomethylbenzoyl}-[Iva]H[Cha][Aib]NK[Aib]TRQR[Cha]-NH2 (SMILES CC[C@](C)(NC(=O)c1ccc(CNC(=N)N)cc1)C(=O)N[C@@H](Cc1c[nH]cn1)C(=O)N[C@@H](CC1CCCCC1)C(=O)NC(C)(C)C(=O)N[C@@H](CC(N)=O)C(=O)N[C@@H](CCCCN)C(=O)NC(C)(C)C(=O)N[C@H](C(=O)N[C@@H](CCCNC(=N)N)C(=O)N[C@@H](CCC(N)=O)C(=O)N[C@@H](CCCNC(=N)N)C(=O)N[C@@H](CC1CCCCC1)C(N)=O)[C@@H](C)O) [4-Guanidinomethylbenzoyl-[Iva25, Cha27,36, Aib28,31, Lys30]-PYY(25-36)] | 2.8 | 6.3
Ac-S[βHOAla]R[4Pal][Cha][Aib]NK[Aib]TRQR[Cha]-NH2 (also: later peak isomer, β-HOAla configuration D or L not assigned) [Ac-[β-HOAla24, Pya(4)26, Cha27,36, Aib28,31, Lys30]-PYY(23-36) later peak] | 1.9 | 0.85
Ac-S[dP]R[4Pal][Cha][Aib]NR[Aib]TRQR[Cha]-NH2 (SMILES CC(=O)N[C@@H](CO)C(=O)N1CCC[C@@H]1C(=O)N[C@@H](CCCNC(=N)N)C(=O)N[C@@H](Cc1ccncc1)C(=O)N[C@@H](CC1CCCCC1)C(=O)NC(C)(C)C(=O)N[C@@H](CC(N)=O)C(=O)N[C@@H](CCCNC(=N)N)C(=O)NC(C)(C)C(=O)N[C@H](C(=O)N[C@@H](CCCNC(=N)N)C(=O)N[C@@H](CCC(N)=O)C(=O)N[C@@H](CCCNC(=N)N)C(=O)N[C@@H](CC1CCCCC1)C(N)=O)[C@@H](C)O) [Ac-[D-Pro24, Pya(4)26, Cha27,36, Aib28,31, Arg30]-PYY(23-36)] | 1.8 | 1.1
Ac-S[Aipe]R[4Pal][Cha][Aib]NK[Aib]TRQR[Cha]-NH2 [Ac-[Aipe24, Pya(4)26, Cha27,36, Aib28,31, Lys30]-PYY(23-36)] | 2 | 1.3
Ac-LS[dP]R[4Pal][Cha][Aib]NK[Aib]TRQR[Cha]-NH2 (SMILES CC(=O)N[C@@H](CC(C)C)C(=O)N[C@@H](CO)C(=O)N1CCC[C@@H]1C(=O)N[C@@H](CCCNC(=N)N)C(=O)N[C@@H](Cc1ccncc1)C(=O)N[C@@H](CC1CCCCC1)C(=O)NC(C)(C)C(=O)N[C@@H](CC(N)=O)C(=O)N[C@@H](CCCCN)C(=O)NC(C)(C)C(=O)N[C@H](C(=O)N[C@@H](CCCNC(=N)N)C(=O)N[C@@H](CCC(N)=O)C(=O)N[C@@H](CCCNC(=N)N)C(=O)N[C@@H](CC1CCCCC1)C(N)=O)[C@@H](C)O) [Ac-[Leu22, D-Pro24, Pya(4)26, Cha27,36, Aib28,31, Lys30]-PYY(22-36)] | 1 | 1.2
[d(pGlu)]R[4Pal][Cha][Aib]NK[Aib]TRQR[Cha]-NH2 (SMILES C[C@@H](O)[C@H](NC(=O)C(C)(C)NC(=O)[C@H](CCCCN)NC(=O)[C@H](CC(N)=O)NC(=O)C(C)(C)NC(=O)[C@H](CC1CCCCC1)NC(=O)[C@H](Cc1ccncc1)NC(=O)[C@H](CCCNC(=N)N)NC(=O)[C@H]1CCC(=O)N1)C(=O)N[C@@H](CCCNC(=N)N)C(=O)N[C@@H](CCC(N)=O)C(=O)N[C@@H](CCCNC(=N)N)C(=O)N[C@@H](CC1CCCCC1)C(N)=O) [[D-pGlu24, Pya(4)26, Cha27,36, Aib28,31, Lys30]-PYY(24-36)] | 1.1 | 2
Ac-KS[dP]R[4Pal][Cha][Aib]NK[Aib]TRQR[Cha]-NH2 (SMILES CC(=O)N[C@@H](CCCCN)C(=O)N[C@@H](CO)C(=O)N1CCC[C@@H]1C(=O)N[C@@H](CCCNC(=N)N)C(=O)N[C@@H](Cc1ccncc1)C(=O)N[C@@H](CC1CCCCC1)C(=O)NC(C)(C)C(=O)N[C@@H](CC(N)=O)C(=O)N[C@@H](CCCCN)C(=O)NC(C)(C)C(=O)N[C@H](C(=O)N[C@@H](CCCNC(=N)N)C(=O)N[C@@H](CCC(N)=O)C(=O)N[C@@H](CCCNC(=N)N)C(=O)N[C@@H](CC1CCCCC1)C(N)=O)[C@@H](C)O) [Ac-[Lys22,30, D-Pro24, Pya(4)26, Cha27,36, Aib28,31]-PYY(22-36)] | 1 | 1.1
X10-E[dP]R[4Pal][Cha][Aib]NK[Aib]TRQR[Cha]-NH2 (SMILES C[C@@H](O)[C@H](NC(=O)C(C)(C)NC(=O)[C@H](CCCCN)NC(=O)[C@H](CC(N)=O)NC(=O)C(C)(C)NC(=O)[C@H](CC1CCCCC1)NC(=O)[C@H](Cc1ccncc1)NC(=O)[C@H](CCCNC(=N)N)NC(=O)[C@H]1CCCN1C(=O)[C@H](CCC(=O)O)NC(=O)NC1CCOCC1)C(=O)N[C@@H](CCCNC(=N)N)C(=O)N[C@@H](CCC(N)=O)C(=O)N[C@@H](CCCNC(=N)N)C(=O)N[C@@H](CC1CCCCC1)C(N)=O) [Tetrahydro-2H-pyran-4-yl-carbamoyl-[Glu23, D-Pro24, Pya(4)26, Cha27,36, Aib28,31, Lys30]-PYY(23-36)] | 1.6 | 1.1
Ac-S[dP]K(Ac)[4Pal][Cha][Aib]NK[Aib]TRQR[Cha]-NH2 (SMILES CC(=O)NCCCC[C@H](NC(=O)[C@H]1CCCN1C(=O)[C@H](CO)NC(C)=O)C(=O)N[C@@H](Cc1ccncc1)C(=O)N[C@@H](CC1CCCCC1)C(=O)NC(C)(C)C(=O)N[C@@H](CC(N)=O)C(=O)N[C@@H](CCCCN)C(=O)NC(C)(C)C(=O)N[C@H](C(=O)N[C@@H](CCCNC(=N)N)C(=O)N[C@@H](CCC(N)=O)C(=O)N[C@@H](CCCNC(=N)N)C(=O)N[C@@H](CC1CCCCC1)C(N)=O)[C@@H](C)O) [Ac-[D-Pro24, Lys(Ac)25, Pya(4)26, Cha27,36, Aib28,31, Lys30]-PYY(23-36)] | 4.2 | 6.6
X4-E[dP]R[4Pal][Cha][Aib]NK[Aib]TRQR[Cha]-NH2 (SMILES CC(C)C[C@H](NC(=O)N[C@@H](CCC(=O)O)C(=O)N1CCC[C@@H]1C(=O)N[C@@H](CCCNC(=N)N)C(=O)N[C@@H](Cc1ccncc1)C(=O)N[C@@H](CC1CCCCC1)C(=O)NC(C)(C)C(=O)N[C@@H](CC(N)=O)C(=O)N[C@@H](CCCCN)C(=O)NC(C)(C)C(=O)N[C@H](C(=O)N[C@@H](CCCNC(=N)N)C(=O)N[C@@H](CCC(N)=O)C(=O)N[C@@H](CCCNC(=N)N)C(=O)N[C@@H](CC1CCCCC1)C(N)=O)[C@@H](C)O)C(=O)O) | 2.5 | 2.2
Ac-S[dIva]R[4Pal][Cha][Aib]NK[Aib]TRQR[Cha]-NH2 (SMILES CC[C@@](C)(NC(=O)[C@H](CO)NC(C)=O)C(=O)N[C@@H](CCCNC(=N)N)C(=O)N[C@@H](Cc1ccncc1)C(=O)N[C@@H](CC1CCCCC1)C(=O)NC(C)(C)C(=O)N[C@@H](CC(N)=O)C(=O)N[C@@H](CCCCN)C(=O)NC(C)(C)C(=O)N[C@H](C(=O)N[C@@H](CCCNC(=N)N)C(=O)N[C@@H](CCC(N)=O)C(=O)N[C@@H](CCCNC(=N)N)C(=O)N[C@@H](CC1CCCCC1)C(N)=O)[C@@H](C)O) [Ac-[D-Iva24, Pya(4)26, Cha27,36, Aib28,31, Lys30]-PYY(23-36)] | 1.3 | 0.39

Reference: patent US20120172293A1 (Takeda / Millennium, published 2012)
